Data from the supplement of paper PMC9112550, “Optimization of the antimicrobial peptide Bac7 by deep mutational scanning” (BMC Biology, 2022).

system: Escherichia coli TOP10; experiment: shrunken log2 fold change of peptide-encoding DNA abundance (4.5 h post-induction vs induction); higher = less antimicrobial activity (less host growth inhibition); settings: time post-induction: 4.5 h; library: site-saturation at positions 5, 18, 19, 20
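Note: peptides expressed intracellularly from a pBAD plasmid library in pooled LB shake-flask culture, induced with 0.3% L-arabinose, DNA abundance read by NGS, three biological replicates, DESeq2 with apeglm shrinkage.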

Sequence	shrunken log2 fold change
RRIRHRPPRLPRPRPRPQIRPRP	-0.207
RRIRLRPPRLPRPRPRPPVWPRP	0.591
RRIRLRPPRLPRPRPRPITDPRP	-0.465
RRIRFRPPRLPRPRPRPGHCPRP	0.0688
RRIRHRPPRLPRPRPRPNEHPRP	0.409
RRIRNRPPRLPRPRPRPWMLPRP	-0.0937
RRIRARPPRLPRPRPRPEVVPRP	1.32
RRIRKRPPRLPRPRPRPKECPRP	0.121
RRIRHRPPRLPRPRPRPTMTPRP	-0.29
RRIRERPPRLPRPRPRPQRFPRP	0.0827
RRIRRRPPRLPRPRPRPKVAPRP	0.0861
RRIRFRPPRLPRPRPRPALSPRP	0.319
RRIRLRPPRLPRPRPRPTLEPRP	-0.244
RRIRGRPPRLPRPRPRPPRMPRP	0.608
RRIRTRPPRLPRPRPRPSQCPRP	-0.239
RRIRNRPPRLPRPRPRPTIGPRP	-0.00466
RRIRDRPPRLPRPRPRPAPIPRP	0.32
RRIRVRPPRLPRPRPRPLYIPRP	-0.555
RRIRVRPPRLPRPRPRPHSSPRP	-0.531
RRIRCRPPRLPRPRPRPDVAPRP	0.298
RRIRMRPPRLPRPRPRPHAGPRP	0.222
RRIRKRPPRLPRPRPRPGEDPRP	0.0621
RRIRPRPPRLPRPRPRPPYKPRP	-0.113
RRIRRRPPRLPRPRPRPRGEPRP	0.739
RRIRRRPPRLPRPRPRPTSHPRP	0.321

Sequence	shrunken log2 fold change
RRIRSRPPRLPRPRPRPATAPRP	0.322
RRIRFRPPRLPRPRPRPPQMPRP	0.333
RRIRCRPPRLPRPRPRPEKVPRP	0.0187
RRIRPRPPRLPRPRPRPHAYPRP	-0.317
RRIRNRPPRLPRPRPRPVQRPRP	-0.186
RRIRHRPPRLPRPRPRPDKVPRP	0.1
RRIRRRPPRLPRPRPRPECGPRP	0.938
RRIRPRPPRLPRPRPRPAPWPRP	0.436
RRIRTRPPRLPRPRPRPVWDPRP	0.13
RRIRFRPPRLPRPRPRPYYYPRP	-0.392
RRIRWRPPRLPRPRPRPPGRPRP	0.877
RRIRERPPRLPRPRPRPCSTPRP	-0.702
RRIRIRPPRLPRPRPRPSNSPRP	-1.13
RRIRCRPPRLPRPRPRPTLAPRP	0.645
RRIRQRPPRLPRPRPRPQCMPRP	-0.496
RRIRGRPPRLPRPRPRPWKEPRP	0.275
RRIRDRPPRLPRPRPRPLHMPRP	-0.0438
RRIRQRPPRLPRPRPRPLWWPRP	0.121
RRIRYRPPRLPRPRPRPVCSPRP	-0.484
RRIRNRPPRLPRPRPRPGNNPRP	-0.492
RRIRSRPPRLPRPRPRPNDRPRP	0.0698
RRIRPRPPRLPRPRPRPELNPRP	0.117
RRIRNRPPRLPRPRPRPEEAPRP	0.612
RRIRARPPRLPRPRPRPGPRPRP	1.22
RRIRSRPPRLPRPRPRPVCRPRP	0.199

Sequence	shrunken log2 fold change
RRIRPRPPRLPRPRPRPYHSPRP	-0.659
RRIRFRPPRLPRPRPRPYAAPRP	-0.586
RRIRTRPPRLPRPRPRPAGLPRP	0.0286
RRIRVRPPRLPRPRPRPNYIPRP	-0.631
RRIRIRPPRLPRPRPRPQGEPRP	-0.0606
RRIRIRPPRLPRPRPRPGEAPRP	-0.0281
RRIRMRPPRLPRPRPRPQYKPRP	-0.0699
RRIRSRPPRLPRPRPRPAIQPRP	-0.21
RRIRIRPPRLPRPRPRPLIQPRP	-1.02
RRIRLRPPRLPRPRPRPLKWPRP	-0.369
RRIRTRPPRLPRPRPRPTAQPRP	0.247
RRIRIRPPRLPRPRPRPSFEPRP	-0.507
RRIRTRPPRLPRPRPRPDWMPRP	0.0121
RRIRLRPPRLPRPRPRPRDNPRP	-0.127
RRIRWRPPRLPRPRPRPMHGPRP	-0.138
RRIRGRPPRLPRPRPRPNPAPRP	0.231
RRIRTRPPRLPRPRPRPMCHPRP	-0.228
RRIRIRPPRLPRPRPRPEMAPRP	-0.061
RRIRIRPPRLPRPRPRPFTAPRP	-0.138
RRIRYRPPRLPRPRPRPGHSPRP	-0.13
RRIRRRPPRLPRPRPRPNPTPRP	0.0244
RRIRARPPRLPRPRPRPEWQPRP	0.105
RRIRQRPPRLPRPRPRPWVKPRP	0.0219
RRIRIRPPRLPRPRPRPYPTPRP	-0.159
RRIRFRPPRLPRPRPRPIKPPRP	-0.4

Sequence	shrunken log2 fold change
RRIRYRPPRLPRPRPRPYNVPRP	-0.0198
RRIRMRPPRLPRPRPRPKMAPRP	2.29
RRIRNRPPRLPRPRPRPYPQPRP	-0.138
RRIRYRPPRLPRPRPRPTKEPRP	-0.00889
RRIRERPPRLPRPRPRPFTFPRP	-0.275
RRIRARPPRLPRPRPRPYGIPRP	-0.00196
RRIRCRPPRLPRPRPRPHSDPRP	-0.412
RRIRLRPPRLPRPRPRPYDEPRP	-0.353
RRIRARPPRLPRPRPRPAIGPRP	0.714
RRIRGRPPRLPRPRPRPTWNPRP	0.359
RRIRTRPPRLPRPRPRPTTLPRP	-0.316
RRIRDRPPRLPRPRPRPDGWPRP	0.965
RRIRKRPPRLPRPRPRPEKYPRP	-0.0153
RRIRRRPPRLPRPRPRPPTQPRP	0.678
RRIRERPPRLPRPRPRPECKPRP	-0.132
RRIRIRPPRLPRPRPRPSCMPRP	-0.637
RRIRDRPPRLPRPRPRPVSPPRP	-0.134
RRIRARPPRLPRPRPRPIQFPRP	0.166
RRIRIRPPRLPRPRPRPLKNPRP	-0.202
RRIRGRPPRLPRPRPRPRTEPRP	0.755
RRIRTRPPRLPRPRPRPVAIPRP	-0.168
RRIRNRPPRLPRPRPRPRPDPRP	0.0914
RRIRQRPPRLPRPRPRPITKPRP	-0.0284
RRIRTRPPRLPRPRPRPNTHPRP	-0.451
RRIRYRPPRLPRPRPRPMQDPRP	-0.28

Sequence	shrunken log2 fold change
RRIRFRPPRLPRPRPRPELYPRP	0.0341
RRIRCRPPRLPRPRPRPEQSPRP	0.67
RRIRMRPPRLPRPRPRPKYGPRP	0.0382
RRIRARPPRLPRPRPRPTPSPRP	0.791
RRIRQRPPRLPRPRPRPHHRPRP	0.104
RRIRYRPPRLPRPRPRPKQYPRP	-0.409
RRIRCRPPRLPRPRPRPVPDPRP	-0.0739
RRIRARPPRLPRPRPRPEFEPRP	0.75
RRIRKRPPRLPRPRPRPHTEPRP	0.0507
RRIRERPPRLPRPRPRPWQLPRP	-0.072
RRIRNRPPRLPRPRPRPAGFPRP	0.0141
RRIRQRPPRLPRPRPRPYTEPRP	-0.00136
RRIRERPPRLPRPRPRPNVTPRP	-0.199
RRIRSRPPRLPRPRPRPGIKPRP	-0.0207
RRIRYRPPRLPRPRPRPWPQPRP	0.0526
RRIRIRPPRLPRPRPRPNRFPRP	-0.174
RRIRPRPPRLPRPRPRPIWSPRP	0.0653
RRIRMRPPRLPRPRPRPGKYPRP	0.0424
RRIRPRPPRLPRPRPRPFEYPRP	-0.0601
RRIRFRPPRLPRPRPRPWAGPRP	0.116
RRIRKRPPRLPRPRPRPTGDPRP	0.727
RRIRIRPPRLPRPRPRPEIVPRP	-0.255
RRIRVRPPRLPRPRPRPLWMPRP	-0.523
RRIRVRPPRLPRPRPRPHRIPRP	-0.0697
RRIRSRPPRLPRPRPRPDAYPRP	0.101

Sequence	shrunken log2 fold change
RRIRHRPPRLPRPRPRPVLQPRP	-0.169
RRIRPRPPRLPRPRPRPHPMPRP	-0.0882
RRIRLRPPRLPRPRPRPVSFPRP	0.0353
RRIRGRPPRLPRPRPRPVEVPRP	1.03
RRIRYRPPRLPRPRPRPVQYPRP	-0.0125
RRIRIRPPRLPRPRPRPSIHPRP	-1.28
RRIRIRPPRLPRPRPRPWRWPRP	0.182
RRIRMRPPRLPRPRPRPSAKPRP	0.0449
RRIRLRPPRLPRPRPRPSTLPRP	-0.552
RRIRCRPPRLPRPRPRPLRMPRP	0.461
RRIRDRPPRLPRPRPRPYFDPRP	-0.0823
RRIRMRPPRLPRPRPRPTLGPRP	0.685
RRIRMRPPRLPRPRPRPLLTPRP	2.33
RRIRGRPPRLPRPRPRPDSWPRP	0.627
RRIRVRPPRLPRPRPRPLTMPRP	-0.319
RRIRYRPPRLPRPRPRPQIHPRP	-1.2
RRIRNRPPRLPRPRPRPFVVPRP	-0.676
RRIRHRPPRLPRPRPRPWPIPRP	-0.00691
RRIRWRPPRLPRPRPRPLVAPRP	0.815
RRIRYRPPRLPRPRPRPYSDPRP	-0.237
RRIRWRPPRLPRPRPRPNKCPRP	-0.109
RRIRDRPPRLPRPRPRPPNPPRP	0.0735
RRIRCRPPRLPRPRPRPIIGPRP	-0.304
RRIRFRPPRLPRPRPRPCMMPRP	-0.0025
RRIRNRPPRLPRPRPRPIGHPRP	-0.0117
